Data: PMC3522304

Biological target: hematopoietic form of CD44 (CD44-H) fused to CFP or YFP (human) (UniProt P16070)
Experiment: FRET or BRET

- FRET efficiency (E) with nHA followed by oHA: -15.3%
Substance: hematopoietic form of CD44 (CD44-H) fused to CFP or YFP (from UniProt P16070-12 21-361) (receptor)
